Measurements: patent EP3263700A1

Assays:
Test in all cases: cell-based or functional assay
[1] = target: purified coagulation factor VII (zymogen)
[2] = target: purified coagulation factor IX (zymogen)
[3] = target: purified human coagulation factor X (zymogen) (human) (UniProt P00742)
Sequence of UniProt P00742 (P00742 41-179 limits assumed, chain 1 of 2): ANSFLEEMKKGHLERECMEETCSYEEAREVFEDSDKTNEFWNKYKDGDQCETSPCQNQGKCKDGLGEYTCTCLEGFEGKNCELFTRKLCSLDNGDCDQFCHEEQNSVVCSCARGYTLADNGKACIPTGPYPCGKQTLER
Sequence of UniProt P00742 (P00742 183-488 limits assumed, chain 2 of 2): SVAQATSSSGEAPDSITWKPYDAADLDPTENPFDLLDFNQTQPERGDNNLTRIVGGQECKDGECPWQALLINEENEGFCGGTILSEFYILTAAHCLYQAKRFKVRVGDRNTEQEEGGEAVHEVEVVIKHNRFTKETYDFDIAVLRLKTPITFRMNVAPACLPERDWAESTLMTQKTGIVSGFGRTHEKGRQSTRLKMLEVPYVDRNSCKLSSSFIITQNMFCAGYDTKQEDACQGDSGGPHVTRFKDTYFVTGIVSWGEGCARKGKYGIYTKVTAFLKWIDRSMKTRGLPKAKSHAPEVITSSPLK

C. canimorsus DPP7 (Capnocytophaga canimorsus 5 dipeptidyl peptidase 7) with a C-terminal Strep-His tag (enzyme)
PT (prothrombin time) in factor deficient plasma [1]: 30% | aPTT in factor deficient plasma [2]: 2 fold | PT (prothrombin time) in factor deficient plasma [3]: 10 fold
